Measurements from paper doi:10.1101/2024.12.27.630498 (bioRxiv, 2024).

Molecular target: the molecule itself
Assay: cryo-EM structure

B1: Arabidopsis thaliana AKT1 (Arabidopsis K+ transporter 1), construct for the structure of AKT1 alone (natural protein)
chain: not shown
With B1 as the protein, how does the “stoichiometry N” value read?
The value was 4.
